# Laboratory results published in patent US20200123233A1.
# Columns and labels:
# [1] = molecular target: FTM-NN (membrane anchorless form of the Long fusion protein, 70 kDa) (human respiratory syncytial virus, strain Long) (UniProt P12568)
# [2] = molecular target: F protein of RSV A-2 (human respiratory syncytial virus, strain A-2) (UniProt P03420); assay: cell-based or functional assay
# [3] = molecular target: F protein of RSV B-1 (human respiratory syncytial virus, strain B-1) (UniProt P13843); assay: cell-based or functional assay
# [4] = molecular target: F protein of RSV Long (RSV LONG M-2) (human respiratory syncytial virus, strain Long) (UniProt P12568); assay: cell-based or functional assay
# [5] = molecular target: FTM-NN (membrane anchorless form of the Long fusion protein, 70 kDa) (human respiratory syncytial virus, strain Long) (UniProt P12568); assay: SPR (Biacore), FTM-NN immobilised
# [6] = molecular target: F protein of hRSV strain B-1 (human respiratory syncytial virus, strain B-1 (ATCC VR-1580)) (UniProt P13843); assay: cell-based or functional assay
# [7] = molecular target: F protein of hRSV strain Long (human respiratory syncytial virus, strain Long (ATCC VR-26)) (UniProt P12568); assay: cell-based or functional assay
substance,measurement,setting,value
Numax Fab (Motavizumab or MEDI-524; WO 06/050166),IC50,[1],0.086 nM
"Synagis® (Palivizumab, MedImmune, humanized monoclonal antibody)","RSV neutralization IC50 (nM) (n = 2), A-2",[2],2.5 nM
same,"RSV neutralization IC50 (nM) (n = 2), B1",[3],1.7 nM
same,"RSV neutralization IC50 (nM) (n = 2), Long",[4],4 nM
same,Kd,[5],0.64 nM
same,koff,[5],0.00018 s⁻¹
same,kon,[5],280000 M⁻¹ s⁻¹
Synagis Fab,IC50,[1],0.597 nM
101F Fab (WO 06/050280),IC50,[1],1.12 nM
"Synagis (Palivizumab, MedImmune, humanized monoclonal antibody)","Neutralization IC50 (nM), B-1 (first assay)",[6],2.1 nM
same,"Neutralization IC50 (nM), B-1 (second assay)",[6],2.9 nM
same,"Neutralization IC50 (nM), Long (first assay)",[7],7.3 nM
same,"Neutralization IC50 (nM), Long (second assay)",[7],6 nM
